In publication PMC1781754 (2000):

T1: IL-5 receptor alpha/beta (Homo sapiens, UniProt Q01344)
T1 chain 1: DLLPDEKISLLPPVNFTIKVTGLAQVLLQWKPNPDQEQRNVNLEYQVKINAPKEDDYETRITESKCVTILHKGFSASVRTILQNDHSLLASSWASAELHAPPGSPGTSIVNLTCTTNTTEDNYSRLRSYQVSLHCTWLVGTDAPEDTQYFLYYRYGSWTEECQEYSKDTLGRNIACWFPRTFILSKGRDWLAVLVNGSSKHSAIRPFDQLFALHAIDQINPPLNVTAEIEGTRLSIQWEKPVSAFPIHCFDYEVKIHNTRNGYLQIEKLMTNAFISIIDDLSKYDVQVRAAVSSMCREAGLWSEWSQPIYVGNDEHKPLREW
T1 chain 2: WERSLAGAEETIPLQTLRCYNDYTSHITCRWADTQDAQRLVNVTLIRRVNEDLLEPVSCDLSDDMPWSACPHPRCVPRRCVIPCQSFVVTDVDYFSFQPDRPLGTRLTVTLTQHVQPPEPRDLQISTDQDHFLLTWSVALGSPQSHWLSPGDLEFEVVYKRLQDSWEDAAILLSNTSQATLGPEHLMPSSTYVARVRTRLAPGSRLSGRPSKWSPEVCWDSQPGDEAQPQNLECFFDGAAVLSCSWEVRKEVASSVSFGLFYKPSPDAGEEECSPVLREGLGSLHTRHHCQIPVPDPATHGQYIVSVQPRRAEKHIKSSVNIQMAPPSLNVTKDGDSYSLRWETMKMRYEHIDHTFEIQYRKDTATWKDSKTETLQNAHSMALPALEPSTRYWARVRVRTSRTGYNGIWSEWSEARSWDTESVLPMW


Target: T1, IL-5 receptor alpha/beta
Assay: radioligand displacement

| Ki [nM] | Binder |
| --- | --- |
| 0.75 | IL-5 (protein) IPKQSATLRALVRETLTLLSTHRTLLKGNETLRISVPAHKNHQLCIEEIFQGIDTLKNQTTQGEALATLFQNLSLIKKHIDLQKQKCGEERRRVKQFLDYLQEFLAVINTEWTIEG |
| 0.17 | IL-5 (protein) MEIPMSTVVKETLTQLSAHRALLTSNETMRLPVPTHKNHQLCIGEIFQGLDILKNQTVRGGTVEMLFQNLSLIKKYIDRQKEKCGEERRRTRQFLDYLQEFLGVMSTEWAMEG |
